In patent US20120316071A1 (published 2012):
Blank lines part the entries; values can stand above or below the binder they belong to.

Experiments:
[1] = target: T1, rHuman Erythropoietin R/Fc Chimera, CF (human, UniProt P19235 25-250); assay: ECL multispot (MSD) assay, antigen spotted on the plate, Fab in solution; blank spot of the same well 331
T1 construct: Bought from R&D Systems; also called EPO R; EPO R/Fc; Fc part of the bought chimera not given
T1 sequence (looked up): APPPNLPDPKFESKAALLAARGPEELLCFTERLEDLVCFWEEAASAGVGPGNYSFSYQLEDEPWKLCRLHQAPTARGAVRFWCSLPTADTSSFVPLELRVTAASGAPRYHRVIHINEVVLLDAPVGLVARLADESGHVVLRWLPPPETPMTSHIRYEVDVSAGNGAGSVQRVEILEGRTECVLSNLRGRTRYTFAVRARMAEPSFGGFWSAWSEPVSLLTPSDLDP

[2] = target: T2, rHuman EGF R/Fc Chimera, CF (human, UniProt P00533 25-645); assay: as above
T2 construct: Bought from R&D Systems; also called epidermal growth factor receptor; Fc part of the bought chimera not given

[3] = target: T3, rHuman IGF-1 sR, (IGF-1 sR), CF (human, UniProt P08069 31-932); assay: as above
T3 construct: Bought from R&D Systems as a soluble receptor; also called insulin-like growth factor-1 soluble receptor
Description: (§1) An 150 μl aliquot of 1% Bovine Serum Albumin (BSA) in Tris-buffered Saline Tween (TBST) was added to each well and allowed to incubate for 30 min at 20° C. followed by washing and tap drying to completely remove any residual solution. Subsequently, a 12.5 μl aliquot of 1% BSA TBST was added to each well followed by the addition of a 12.5 μl aliquot of a purified Fab. The plate was sealed and incubated for 1 hour at 20° C. with shaking
(§2) TAG-detection antibody at 25 μl was added to each well and allowed to incubate for 1 hour at 20° C. with shaking. Finally, 15 μl of Read Buffer P with Surfactant (Cat # R92PC-1, Meso Scale Discovery) was added to each well. The electrochemiluminescence was measured using a Sector Imager 2400 (Meso Scale Discovery). Data was analyzed by comparing the ECL signals for an antigen to the blank of each well. A signal to blank ratio of 4 or more was considered a “Hit” Fab.

[4] = target: T4, rHuman ErbB2/Fc Chimera, CF (human, UniProt P04626 23-652); assay: as above
T4 construct: Bought from R&D Systems; also called human epidermal growth factor 2 receptor; Fc part of the bought chimera not given

Recombinant Human DLL4 [5] = target: T5, Recombinant Human DLL4 (human, UniProt Q9NR61 27-524); assay: as above
T5 construct: Bought from R&D Systems; also called delta-like protein 4; rHuman DLL4
Description: as §1, §2

[6] = target: T6, rHuman Notch-1/Fc Chimera, CF (human, UniProt P46531 19-526); assay: as above
T6 construct: Bought from R&D Systems; Fc part of the bought chimera not given

[7] = target: T2, rHuman EGF R/Fc Chimera, CF; assay: ECL multispot (MSD) assay, antigen spotted on the plate, Fab in solution; blank spot of the same well 284
Description: as §1, §2

[8] = target: T7, rHuman P-Cadherin/Fc Chimera, CF (human, UniProt P22223 108-654); assay: as above
T7 construct: Bought from R&D Systems; Fc part of the bought chimera not given

[9] = target: T3, rHuman IGF-1 sR, (IGF-1 sR), CF; assay: as above
Description: as §1, §2

[10] = target: T4, rHuman ErbB2/Fc Chimera, CF; assay: as above
Description: as §1, §2

[11] = target: T8, rHuman CD44/Fc Chimera, CF (human, UniProt P16070 21-220); assay: as above
T8 construct: Bought from R&D Systems; Fc part of the bought chimera not given

Recombinant Human DLL4 [12] = target: T5, Recombinant Human DLL4; assay: as above
Description: as §1, §2

[13] = target: T9, rHuman HGF R/c-MET/Fc Chimera, CF (human, UniProt P08581 25-932); assay: as above
T9 construct: Bought from R&D Systems; also called HGF R/Fc; hepatocyte growth factor receptor; Fc part of the bought chimera not given
T9 sequence (P08581 25-932, change not shown): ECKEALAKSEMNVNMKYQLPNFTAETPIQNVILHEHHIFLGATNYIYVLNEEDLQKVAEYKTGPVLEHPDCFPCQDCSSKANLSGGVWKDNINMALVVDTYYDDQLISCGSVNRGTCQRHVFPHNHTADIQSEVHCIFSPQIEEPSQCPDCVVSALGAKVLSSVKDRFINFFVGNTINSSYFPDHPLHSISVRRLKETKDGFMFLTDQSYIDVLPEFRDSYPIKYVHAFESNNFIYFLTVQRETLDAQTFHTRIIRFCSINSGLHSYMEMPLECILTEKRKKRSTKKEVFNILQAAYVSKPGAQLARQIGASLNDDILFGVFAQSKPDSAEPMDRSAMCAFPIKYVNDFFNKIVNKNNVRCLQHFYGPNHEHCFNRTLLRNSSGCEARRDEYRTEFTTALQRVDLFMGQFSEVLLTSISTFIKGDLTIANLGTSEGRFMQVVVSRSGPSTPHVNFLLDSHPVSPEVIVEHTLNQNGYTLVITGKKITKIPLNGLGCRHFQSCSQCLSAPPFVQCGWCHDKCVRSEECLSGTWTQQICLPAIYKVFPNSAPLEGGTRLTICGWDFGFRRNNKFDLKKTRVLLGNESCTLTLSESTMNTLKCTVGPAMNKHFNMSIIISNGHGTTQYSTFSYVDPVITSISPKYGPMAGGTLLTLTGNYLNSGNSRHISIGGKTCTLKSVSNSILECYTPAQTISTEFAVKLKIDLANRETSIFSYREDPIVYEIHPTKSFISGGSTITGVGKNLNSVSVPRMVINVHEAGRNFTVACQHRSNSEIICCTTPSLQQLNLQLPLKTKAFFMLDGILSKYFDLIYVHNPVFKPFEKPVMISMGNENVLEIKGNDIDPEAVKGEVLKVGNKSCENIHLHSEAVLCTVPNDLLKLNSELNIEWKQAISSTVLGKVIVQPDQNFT

[14] = target: T6, rHuman Notch-1/Fc Chimera, CF; assay: as above
Description: as §1, §2

[15] = target: T1, rHuman Erythropoietin R/Fc Chimera, CF; assay: ECL multispot (MSD) assay, antigen spotted on the plate, Fab in solution; blank spot of the same well 407
Description: as §1, §2

[16] = target: T2, rHuman EGF R/Fc Chimera, CF; assay: as above
Description: as §1, §2

[17] = target: T7, rHuman P-Cadherin/Fc Chimera, CF; assay: as above
Description: as §1, §2

[18] = target: T3, rHuman IGF-1 sR, (IGF-1 sR), CF; assay: as above
Description: as §1, §2

[19] = target: T4, rHuman ErbB2/Fc Chimera, CF; assay: as above
Description: as §1, §2

[20] = target: T8, rHuman CD44/Fc Chimera, CF; assay: as above
Description: as §1, §2

Recombinant Human DLL4 [21] = target: T5, Recombinant Human DLL4; assay: as above
Description: as §1, §2

[22] = target: T9, rHuman HGF R/c-MET/Fc Chimera, CF; assay: as above
Description: as §1, §2

[23] = target: T6, rHuman Notch-1/Fc Chimera, CF; assay: as above
Description: as §1, §2

[24] = target: T1, rHuman Erythropoietin R/Fc Chimera, CF; assay: ECL multispot (MSD) assay, antigen spotted on the plate, Fab in solution; blank spot of the same well 231
Description: as §1, §2

[25] = target: T2, rHuman EGF R/Fc Chimera, CF; assay: as above
Description: as §1, §2

[26] = target: T7, rHuman P-Cadherin/Fc Chimera, CF; assay: as above
Description: as §1, §2

[27] = target: T3, rHuman IGF-1 sR, (IGF-1 sR), CF; assay: as above
Description: as §1, §2

[28] = target: T4, rHuman ErbB2/Fc Chimera, CF; assay: as above
Description: as §1, §2

[29] = target: T8, rHuman CD44/Fc Chimera, CF; assay: as above
Description: as §1, §2

Recombinant Human DLL4 [30] = target: T5, Recombinant Human DLL4; assay: as above
Description: as §1, §2

[31] = target: T9, rHuman HGF R/c-MET/Fc Chimera, CF; assay: as above
Description: as §1, §2

[32] = target: T6, rHuman Notch-1/Fc Chimera, CF; assay: as above
Description: as §1, §2

ECL signal [1]: 441 | ECL signal [2]: 297 | ECL signal [3]: 367 | ECL signal [4]: 313 | ECL signal (Recombinant Human DLL4 [5]): 171000 | ECL signal [6]: 460
B1: Fab VH1-46_IGHD6-6*01_IGHJ1*01 S102A/S103P/S104F/H111F (APFF) & L6_IGKJ1*01 S31E (Fab, V domains shown)
VH: QVQLVQSGAEVKKPGASVKVSCKASGYTFTSYYMHWVRQAPGQGLEWMGIINPSGGSTSYAQKFQGRVTMTRDTSTSTVYMELSSLRSEDTAVYYCAREEYAPFSAEYFQFWGQGTLVTVSS
VL: EIVLTQSPATLSLSPGERATLSCRASQSVSEYLAWYQQKPGQAPRLLIYDASNRATGIPARFSGSGSGTDFTLTISSLEPEDFAVYYCQQRSNWPPWTFGQGTKVEIKR
notes: Tested as an E. coli Fab; The heavy chain carries CH1 with His6 and Flag tags from plasmid A, the light chain a kappa CL from plasmid C; also called APFF / S31E; H:APFF & L6_IGKJ1*01 S31E

ECL signal [7]: 320 | ECL signal [8]: 361 | ECL signal [9]: 293 | ECL signal [10]: 236 | ECL signal [11]: 445 | ECL signal (Recombinant Human DLL4 [12]): 188000 | ECL signal [13]: 197 | ECL signal [14]: 351
B2: Fab VH1-46_IGHD6-6*01_IGHJ1*01 S102A/S103P/S104F/H111F (APFF) & L6_IGKJ1*01 S31Y (Fab, V domains shown)
VH: QVQLVQSGAEVKKPGASVKVSCKASGYTFTSYYMHWVRQAPGQGLEWMGIINPSGGSTSYAQKFQGRVTMTRDTSTSTVYMELSSLRSEDTAVYYCAREEYAPFSAEYFQFWGQGTLVTVSS
VL: EIVLTQSPATLSLSPGERATLSCRASQSVSYYLAWYQQKPGQAPRLLIYDASNRATGIPARFSGSGSGTDFTLTISSLEPEDFAVYYCQQRSNWPPWTFGQGTKVEIKR
notes: Tested as an E. coli Fab; The heavy chain carries CH1 with His6 and Flag tags from plasmid A, the light chain a kappa CL from plasmid C; also called APFF / S31Y; H:APFF & L6_IGKJ1*01 S31Y

ECL signal [15]: 548 | ECL signal [16]: 390 | ECL signal [17]: 379 | ECL signal [18]: 415 | ECL signal [19]: 392 | ECL signal [20]: 438 | ECL signal (Recombinant Human DLL4 [21]): 165000 | ECL signal [22]: 329 | ECL signal [23]: 383
B3: Fab VH1-46_IGHD6-6*01_IGHJ1*01 S102A/S103P/S104F/H111F (APFF) & L6_IGKJ1*01 S31Q (Fab, V domains shown)
VH: QVQLVQSGAEVKKPGASVKVSCKASGYTFTSYYMHWVRQAPGQGLEWMGIINPSGGSTSYAQKFQGRVTMTRDTSTSTVYMELSSLRSEDTAVYYCAREEYAPFSAEYFQFWGQGTLVTVSS
VL: EIVLTQSPATLSLSPGERATLSCRASQSVSQYLAWYQQKPGQAPRLLIYDASNRATGIPARFSGSGSGTDFTLTISSLEPEDFAVYYCQQRSNWPPWTFGQGTKVEIKR
notes: Tested as an E. coli Fab; The heavy chain carries CH1 with His6 and Flag tags from plasmid A, the light chain a kappa CL from plasmid C; also called APFF / S31Q; H:APFF & L6_IGKJ1*01 S31Q

ECL signal [24]: 414 | ECL signal [25]: 391 | ECL signal [26]: 384 | ECL signal [27]: 301 | ECL signal [28]: 311 | ECL signal [29]: 381 | ECL signal (Recombinant Human DLL4 [30]): 65500 | ECL signal [31]: 378 | ECL signal [32]: 426
B4: Fab VH1-46_IGHD6-6*01_IGHJ1*01 S102A/S103P/S104F/H111F (APFF) & L6_IGKJ1*01 S31G (Fab, V domains shown)
VH: QVQLVQSGAEVKKPGASVKVSCKASGYTFTSYYMHWVRQAPGQGLEWMGIINPSGGSTSYAQKFQGRVTMTRDTSTSTVYMELSSLRSEDTAVYYCAREEYAPFSAEYFQFWGQGTLVTVSS
VL: EIVLTQSPATLSLSPGERATLSCRASQSVSGYLAWYQQKPGQAPRLLIYDASNRATGIPARFSGSGSGTDFTLTISSLEPEDFAVYYCQQRSNWPPWTFGQGTKVEIKR
notes: Tested as an E. coli Fab; The heavy chain carries CH1 with His6 and Flag tags from plasmid A, the light chain a kappa CL from plasmid C; also called APFF / S31G; H:APFF & L6_IGKJ1*01 S31G
